# B1: anti-CD45 nanobody 2H5 with C-terminal SpyTag003 (VHH)
# VHH: QVQLQESGGGLVQTGGSLTLSCVASGGTFSSYAMGWFRQAPGKEREFVAAIGGSGDSTYYADSVKGRFTISRDNAKNSVYLQMNSLKPEDTAVYYCQADPTMFHKLYYGINPNEYDYWGQGTLVTVSS
# notes: constructs are in the supplementary Methods; also called 2H5 nanobody
# Experiments:
# [1] = target: T1, endogenous human CD45 at the cell-surface (Homo sapiens, UniProt P08575-4); experiment: flow cytometry on cells; nanobodies incubated with YTS or NK92 cells (CD45+) or Expi293F cells (CD45-); detected with anti-VHH-Alexa Fluor 647; settings: one partner purified
# T1 construct: human CD45 as expressed on NK cell-lines and CD8+ T cells; also called endogenous CD45; source: endogenous, on YTS and NK92 cells and on primary human CD8+ T cells
# [2] = target: T2, recombinant fragment of the d1 and d2 domains of human CD45 linked to an AviTag (Homo sapiens, biotin (site-specific, on the AviTag)); experiment: ELISA; nanobodies coated on a plate, incubated with the indicated concentration of biotinylated CD45d1d2; colorimetric detection, absorbance at 450 nm; settings: both partners purified
# T2 construct: human CD45, extracellular domains d1 and d2; Glycosylated; Construct limits may be in the supplementary Methods; also called CD45d1d2; biotinylated human CD45 domains 1 and 2; source: Expi293F cells, purified
# T2 chain: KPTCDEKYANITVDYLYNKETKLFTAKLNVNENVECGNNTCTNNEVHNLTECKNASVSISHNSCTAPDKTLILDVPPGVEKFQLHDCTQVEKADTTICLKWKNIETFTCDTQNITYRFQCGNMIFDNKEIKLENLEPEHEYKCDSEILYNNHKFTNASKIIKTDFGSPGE
# T1 sequence (P08575 26-1306): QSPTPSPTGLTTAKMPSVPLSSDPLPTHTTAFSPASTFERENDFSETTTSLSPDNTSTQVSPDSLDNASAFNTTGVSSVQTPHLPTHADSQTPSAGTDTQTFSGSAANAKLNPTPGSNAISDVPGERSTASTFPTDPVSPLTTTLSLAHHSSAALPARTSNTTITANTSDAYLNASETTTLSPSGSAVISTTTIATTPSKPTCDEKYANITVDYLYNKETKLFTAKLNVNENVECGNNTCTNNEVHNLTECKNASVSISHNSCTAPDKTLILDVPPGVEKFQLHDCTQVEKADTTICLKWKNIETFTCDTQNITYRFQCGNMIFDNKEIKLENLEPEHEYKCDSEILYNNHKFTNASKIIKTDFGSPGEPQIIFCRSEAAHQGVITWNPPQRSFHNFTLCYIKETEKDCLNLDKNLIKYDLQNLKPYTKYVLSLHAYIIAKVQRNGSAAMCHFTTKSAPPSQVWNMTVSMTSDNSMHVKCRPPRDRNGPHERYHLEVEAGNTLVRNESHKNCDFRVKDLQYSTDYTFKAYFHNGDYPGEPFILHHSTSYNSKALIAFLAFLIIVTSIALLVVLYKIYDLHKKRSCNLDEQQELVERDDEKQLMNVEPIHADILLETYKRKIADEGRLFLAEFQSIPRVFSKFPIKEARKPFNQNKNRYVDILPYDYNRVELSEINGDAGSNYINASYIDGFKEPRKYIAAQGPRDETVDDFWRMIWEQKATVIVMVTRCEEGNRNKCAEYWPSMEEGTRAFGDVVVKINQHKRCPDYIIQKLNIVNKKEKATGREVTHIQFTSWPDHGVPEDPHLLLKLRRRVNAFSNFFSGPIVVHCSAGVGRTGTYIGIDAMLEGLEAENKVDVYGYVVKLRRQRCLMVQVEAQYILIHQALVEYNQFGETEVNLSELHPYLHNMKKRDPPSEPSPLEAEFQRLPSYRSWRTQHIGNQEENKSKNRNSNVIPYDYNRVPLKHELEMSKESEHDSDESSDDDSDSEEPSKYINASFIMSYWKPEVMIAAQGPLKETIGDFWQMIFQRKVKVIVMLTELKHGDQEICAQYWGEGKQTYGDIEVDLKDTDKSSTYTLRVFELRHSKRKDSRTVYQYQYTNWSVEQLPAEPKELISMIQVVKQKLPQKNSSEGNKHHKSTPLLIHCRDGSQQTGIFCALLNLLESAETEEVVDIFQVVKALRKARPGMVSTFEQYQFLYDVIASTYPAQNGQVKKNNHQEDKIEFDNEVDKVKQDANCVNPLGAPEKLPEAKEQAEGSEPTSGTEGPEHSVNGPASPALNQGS
binder,measurement,setting,value
B1,binding result,[1],binds
same,binding result,[2],binds

# Source: paper doi:10.1101/2025.06.14.659678, “NanoBondy reacting through NeissLock anhydride allows covalent immune cell decoration” (bioRxiv, 2025)
